B1: TPR 5TU (parent)
chain: GGAUCUUCUCGAUCUAACAAAAAAGACAAAUCUGCCACAAAGCUUGAGAGCAUCUUCGGAUGCAGAGGCGGCAGCCUUCGGUGGCGCGAUAGCGCCAACGUUCUCAACUAUGACACGCAAAACGCGUGCUCCGUUGAAUGGAGUUUAUCAUG

This sample holds only a part of the variants without activity.

Consider 84 variants from the RNAGym collection of RNA variant scans (doi:10.1073/pnas.2313332121).

In the series the parent is B1. Briefly: polymerase ribozyme fitness, log enrichment relative to wild type (log ratio); higher = more active; in vitro selection for triplet polymerase activity. Summed up:
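Mutant libraries were PCR-built and transcribed for each subunit of a heterodimeric triplet polymerase ribozyme and selected for one round in triplicate at −7 °C, frozen, before gel excision of extended constructs and streptavidin-bead capture. Input and output libraries were Illumina-sequenced, keeping genotypes with ≥10 input reads and ≥1 read per output. Fitness is a logarithmic ratio of genotype to wild-type enrichment, in base 2, using inverse-variance-weighted replicate averages.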
For G50A G86A, the “polymerase ribozyme fitness (log ratio)” value was -3.01.
As for G50A G86U, the “polymerase ribozyme fitness (log ratio)” value is -3.78.
For C51A U127G the value was -4.1; for G50A C85U C96U C105U G141A, -1.94.
In the case of C51G A73G C79G C87G G140C U144A, the “polymerase ribozyme fitness (log ratio)” value is at most -4.2.
The result for G50A C54U C57A G84U C103G G124C G133U G141C reads at most -4.2; that for C51A C85U, -1.01; that for G50A G68A C96G C99U G136A, at most -4.2.
The result for G50U C87U G136U reads -2.29; that for G50A C51U G74C U82C G140A U146G, at most -4.2.
Regarding C51A C85A G141A, the “polymerase ribozyme fitness (log ratio)” value was -1.93.
Regarding G50A U53A A91U G124A C131G A137C, the “polymerase ribozyme fitness (log ratio)” value was at most -4.2.
As to G50A C125U, the “polymerase ribozyme fitness (log ratio)” value is -1.35.
The result for G50C A52C G86U C87A reads at most -4.2; that for G50C C69A C75U, at most -4.2.
As for C51A C63U C85A G126A C129A G140A, the “polymerase ribozyme fitness (log ratio)” value was at most -4.2.
As to G50A G70A, the “polymerase ribozyme fitness (log ratio)” value is -3.76.
Turning to G50C U61A A110U U145G, the “polymerase ribozyme fitness (log ratio)” value was at most -4.2.
In the case of C51G A73U, the “polymerase ribozyme fitness (log ratio)” value was -3.44.
For G50C C75U C93G A115G the value was at most -4.2; for C51A C85U A89G U146A, -3.11; for G50U C87U G92A, 0.244.
G50A C76U C96A A121G: the “polymerase ribozyme fitness (log ratio)” value is -1.1.
On to G50C C87U C103G A121G C123U C125G, for which the “polymerase ribozyme fitness (log ratio)” value is at most -4.2.
As to G50A U53A U55A U56A G67C G92A G126U, the “polymerase ribozyme fitness (log ratio)” value is at most -4.2.
On to G50A C96A, for which the “polymerase ribozyme fitness (log ratio)” value is -2.68.
In the case of G50A C96U, the “polymerase ribozyme fitness (log ratio)” value is -1.47.
For G50A C96G, the “polymerase ribozyme fitness (log ratio)” value is -1.55.
On to G50C G59C C95G, for which the “polymerase ribozyme fitness (log ratio)” value is -3.67.
G50U U139C: the “polymerase ribozyme fitness (log ratio)” value is -3.65.
As to C51A A60G C95G U146C U151G, the “polymerase ribozyme fitness (log ratio)” value was at most -4.2.
For C51A C99G the value was -4.07.
The result for G50A C57A C99A reads -2.67; that for G50C C63U U82C A115U U146A, -1.83; that for G50C C63G G94C C103A C132U, -4.08.
For the variant G50C C51A, the “polymerase ribozyme fitness (log ratio)” value was -0.896.
For G50C A91G, the “polymerase ribozyme fitness (log ratio)” value was -4.
The result for C51A C85A U134C reads -2.88.
For G50C A64U C93G U111G C116U G143U the value was at most -4.2; for G50U U55G C75A A97G A137U U151A, at most -4.2.
G50A C54U U55A A73G: the “polymerase ribozyme fitness (log ratio)” value was at most -4.2.
As to G50A U78G, the “polymerase ribozyme fitness (log ratio)” value is -4.06.
Take G50A C93G G124A C125U G133A U135G A150G: the “polymerase ribozyme fitness (log ratio)” value is at most -4.2.
G50A G86A C132U G143C C149G: the “polymerase ribozyme fitness (log ratio)” value was at most -4.2.
G50A G94C C95G U144C: the “polymerase ribozyme fitness (log ratio)” value was at most -4.2.
For G50U U55A A66G C95U C103A A138U the value was at most -4.2; for G50U G94A A113G A147C, -3.89; for G50C C95G U101G A115U C118G A122C G126U, at most -4.2.
As for G50A G84A C95G U146C, the “polymerase ribozyme fitness (log ratio)” value was -0.861.
For the variant G50C G83U C93A G100U G124C G128U C132G U145G, the “polymerase ribozyme fitness (log ratio)” value is at most -4.2.
On to C51G A52G U102A, for which the “polymerase ribozyme fitness (log ratio)” value is -3.01.
Turning to G50U C69U C99U, the “polymerase ribozyme fitness (log ratio)” value is -3.41.
Consider C51A U55G A60G C93U, for which the “polymerase ribozyme fitness (log ratio)” value is -2.7.
With G50C U53A C57G A73G C93A C95A U101G A107G A138C U144C, the “polymerase ribozyme fitness (log ratio)” value is at most -4.2.
As to G50C U56C C87G A89C G100C A120G C125U, the “polymerase ribozyme fitness (log ratio)” value was at most -4.2.
The result for C51A C87A G133U C149G reads at most -4.2; that for G50U U56A C114U, -2.18; that for G50U C85A U144A U145C, -1.01.
As for G50U U53G C69G G94A, the “polymerase ribozyme fitness (log ratio)” value was at most -4.2.
Consider G50C C57G U77A G81A G86C C96A G143A, for which the “polymerase ribozyme fitness (log ratio)” value was at most -4.2.
In the case of C51G A106G, the “polymerase ribozyme fitness (log ratio)” value is -3.04.
For G50C C51U G92U, the “polymerase ribozyme fitness (log ratio)” value is -2.09.
As to G50C C93U U104G G136U G141A, the “polymerase ribozyme fitness (log ratio)” value was at most -4.2.
As for G50C U78A G92A, the “polymerase ribozyme fitness (log ratio)” value was at most -4.2.
In the case of C51A G67A A73G C95A U101G G140U U151G, the “polymerase ribozyme fitness (log ratio)” value is at most -4.2.
The result for G50C C76A G83U C103A C132G U145G reads at most -4.2; that for C51A G86U C108G A137C, at most -4.2; that for G50U C51U C72U C93G U101C C108A G112U A113U A121G, at most -4.2.
For G50C C95U, the “polymerase ribozyme fitness (log ratio)” value is -3.47.
For the variant G50U A73U C87U, the “polymerase ribozyme fitness (log ratio)” value was -2.26.
The result for G50C G83U reads -3.77; that for G50A G58C, -1.06.
For G50A C95U C125U, the “polymerase ribozyme fitness (log ratio)” value is -2.44.
For G50C U56A A73G C125A, the “polymerase ribozyme fitness (log ratio)” value is -4.1.
G50U G58U G59U C76A: the “polymerase ribozyme fitness (log ratio)” value was at most -4.2.
C51A G58C: the “polymerase ribozyme fitness (log ratio)” value is -2.22.
Consider C51A C95U C118U U135A, for which the “polymerase ribozyme fitness (log ratio)” value is -2.41.
In the case of G50U C85A, the “polymerase ribozyme fitness (log ratio)” value was -1.4.
Turning to G50A G83C U146G, the “polymerase ribozyme fitness (log ratio)” value is -2.55.
Take G50A C57U C85U G128A: the “polymerase ribozyme fitness (log ratio)” value was at most -4.2.
For G50A U56G C85U A115C U144G the value was -2.74; for G50U C57U G92C, -0.983.
G50A G84A U101C G117C U146G: the “polymerase ribozyme fitness (log ratio)” value is -0.884.
For G50C the value was -2.52.
